Measured values from patent publication US20190106498A1, “TREATMENT FOR ACUTE MYELOID LEUKEMIA” (priority 2017, published 2019).

How the values were obtained:
[1] = Phase I/II trial: peripheral blood counts; format: in vivo, human
Description: By C2D17, the percentage of blasts in peripheral blood was 0.8% by flow cytometry and 0% by cell morphology.
Patient 1001003 is a person with AML with myelodysplasia-related changes by WHO classification (AML-M2 by FAB classification) and 24% bone marrow blasts. […] Blast percentage at C1D1 was stable.

AML LSCs = assay: Colony plating assay of AML LSCs; format: cell-based, human; settings: P6, P8, P11; all disease risk categories
Protocol: (§1) FIGS. 3A-3F Anti-CD70/decitabine co-treatment reduces re-plating capacity of human CD34+CD38− AML stem/progenitor cells. […] Colonies and cells were enumerated after 14 days. (FIG. 3A) Colonies per 1×10^3 plated cells. (FIG. 3B) Cells per colony. (FIG. 3C) Serial re-plating experiments. (d-f) FACS-purified lin-CD90+CD34+CD38− stem/progenitor cells from BM of “healthy” donors were cultured and plated in methylcellulose as described in (a-c). (FIG. 3D) Colonies per 1×10^3 plated cells. (FIG. 3E) Cells per colony. (FIG. 3F) Serial re-plating experiments. Data are represented as mean±S.D. Statistics: One-way-ANOVA. Dunnett's post-test (vs. αCD70/D); *, P<0.05; **, P<0.01; ***, P<0.001.

[2] = ARGX-110 concentration in bone marrow aspirates versus plasma; format: in vivo, human
Protocol: Concentration of ARGX-110 in bone marrow aspirates was measured in limited samples and compared to the matching plasma samples.

AML = assay: Phase I/II trial of ARGX-110 with AZA: clinical response; format: in vivo, human; settings: for Time to best response: cycle/day
Description: The study included a screening phase (between Day −35 and Day −14), a loading dose of ARGX-110 (Day −14) and an open-label treatment phase during which subjects visited the study center for administration of the study drug (Day −14 until disease progression), and end-of-treatment (EOT) evaluations performed within 7 days after the last ARGX-110 treatment. Additional follow-up evaluations were scheduled at 30 and 60 days (±7 days) after the EOT date. The 60-days follow-up visit was also the end-of-study (EOS) visit.
Clinical response to treatment was categorised according Table 3: […]

LSCs = assay: Methylcellulose colony assays of patient mononuclear cells (LSC number/frequency, ELDA); format: in vivo, human
Protocol: FIGS. 9A-9F αCD70 mAb treatment reduces CD34^+CD38^− AML stem/progenitor cell frequencies in AML patients. (FIG. 9A) Colony formation of P2. 10^4 BM MNCs of patient P002 at diagnosis (SCR) and 14 days after administration of ARGX110 (1 mg/kg i.v., time point 0, or C1D1) were plated in methylcellulose and colony formation was assessed 2 weeks later. (FIG. 9B) Fold change in colony formation of different patients treated with indicated doses of ARGX110. (FIG. 9C) Colony formation at limiting dilution from P2. (FIG. 9D) Stem cell frequencies at SCR and Time point 0 determined in enhanced limiting dilution experiments for P2 and different patients treated with indicated doses of ARGX110. Data are represented as mean±S.D. Statistics: (a, b, e) Student's t-test; (FIG. 9E): χ^2 test; **, P<0.01; ***, P<0.001. (FIG. 9F) Colony formation of P2. 10^4, 5×10^3, 10^3 and 10^2 BM MNCs of patient P002 at diagnosis (SCR), 14 days after administration of ARGX110 (1 mg/kg i.v., time point 0, or C1D1) and after combination treatment (“combi”) were plated in methylcellulose and colony formation was assessed 2 weeks later.
To assess bone marrow blasts, bone marrow aspirates taken at the various time points were analysed. Methylcellulose colony assays using FACS sorted monocytes (mononuclear cells (CD45^dim) were selectively sorted by excluding doublets, dead cells and lymphocytes using Annexin V and antibodies for CD19 and CD4/CD8) were used to assess the number of LSCs in the bone marrow. In addition, bone marrow blast percentages were also assessed by cell morphology and flow cytometric analysis.
To further explore the impact of the mono and combination therapies on the LSC populations in patients, methylcellulose colony assays using FACS sorted ex vivo monocytes were performed. Mononuclear cells (CD45^dim) were selectively sorted by excluding doublets, dead cells and lymphocytes using Annexin V and antibodies for CD19 and CD4/CD8 and serially plated on methylcellulose for 14 days.
Bone marrow aspirate taken at day 1 was compared to bone marrow aspirate taken before administration of the ARGX-110 loading dose. Methylcellulose colony assays using FACS sorted monocytes (mononuclear cells (CD45^dim) were selectively sorted by excluding doublets, dead cells and lymphocytes using Annexin V and antibodies for CD19 and CD4/CD8) were used to assess the number of LSCs in the bone marrow.

healthy stem cells = format: cell-based, human
Protocol: as §1

[3] = patient 1001002, 1 mg/kg with AZA, C3D17
[4] = patient 1001003, with AZA, C2D1
[5] = patient 1001005, 3 mg/kg, Cycle 7 Day 2
[6] = patient 1001007, 10 mg/kg, Cycle 4 Day 1
[7] = patients treated for sufficient time to assess response
[8] = patient 1001002, loading dose 1 mg/kg

B1: ARGX-110: IgG1 anti-CD70 antibody with defucosylated Fc region; VH SEQ ID NO: 4, VL SEQ ID NO: 8 (antibody, V domains shown)
VH: EVQLVESGGGLVQPGGSLRLSCAASGFTFSVYYMNWVRQAPGKGLEWVSDINNEGGTTYYADSVKGRFTISRDNSKNSLYLQMNSLRAEDTAVYYCARDAGYSNHVPIFDSWGQGTLVTVSS
VL: QAVVTQEPSLTVSPGGTVTLTCGLKSGSVTSDNFPTWYQQTPGQAPRLLIYNTNTRHSGVPDRFSGSILGNKAALTITGAQADDEAEYFCALFISNPSVEFGGGTQLTVLG
modifications: IgG1, defucosylated Fc; Custom antibody fragment
In the case of B1, the Hb [1, 3] is reported as 10.2 g/dL, the “absolute neutrophil count (ANC)” value [1, 3] is reported as 0.97 G/L and the platelets [1, 3] is reported as 128 G/L. For the same molecule, the ANC [1, 4] was 0.38 G/L, the Hb [1, 4] was 9.2 g/dL and the platelets [1, 4] was 98 G/L. For the same molecule, the “number of colonies formed by AML LSCs” value (AML LSCs) was “reduce the number of colonies”, the “CARGX-110 BM aspirate” value [2, 5] was 33.1 µg/mL and the CARGX-110 plasma [2, 5] was 37.3 µg/mL. For the same molecule, the “CARGX-110 BM aspirate” value [2, 6] was 117.7 µg/mL, the CARGX-110 plasma [2, 6] was 126.6 µg/mL and the “concentration in bone marrow aspirates versus plasma” value ([2]; patients 1001005 and 1001007) was “comparable to the plasma levels”. The “Time to best response” value (AML; Cohort 1 (1 mg/kg) with AZA, one line per patient, 1 mg/kg) was “EOT”, the “Time to best response” value (AML; Cohort 2 (3 mg/kg) with AZA, one line per patient, 3 mg/kg) was “EOT” and the “Best response to date” value (AML; Cohort 4 (20 mg/kg) with AZA, one line per patient, 20 mg/kg) was “No response”. The “patients in each cohort showing complete remission” value (AML; each of the 1 mg/kg, 3 mg/kg and 10 mg/kg cohorts) was 2 of the 3, the “patients responding (response rate)” value (AML; [7]) was “more than 90%” and the “responding patients / assessed patients” value (AML; [7]) was 10/11. The “reduction in LSC frequency compared to baseline” value (LSCs; FIG. 9F, after monotherapy (C1D1) and combination therapy (C4D1)) was ~24 fold, the “number of cells per colony” value (LSCs; following therapy (data not shown)) was “reduced” and the “circulating LSC levels” value (LSCs; monotherapy, then combination) was “reduced”. The “factor of reduction of the number of LSCs in the bone marrow” value (LSCs; patient 1001001, single dose 1 mg/kg, day 1 vs before loading dose, ELDA) was 140,000, the “cell number per colony” value (LSCs; [8]) was “reduced” and the “factor of reduction of LSCs in the bone marrow” value (LSCs; [8]) was 2. The “decrease of colony formation” value (LSCs; patient 1001002, loading dose 1 mg/kg, all informative serial dilution concentrations) was “greater than 50%” and the “effect on healthy stem cells (colonies, cells per colony, re-plating)” value (healthy stem cells) was “no effect on healthy cells compared to vehicle alone”.
